Experimental data reported in publication PMC11022716.
Values belong to the binder of their own block, whether it stands above or below them.

What was measured:
hu1‐23 (human) = test: SPR; BIAcore 8K, 25 °C, HBS‐EP+ buffer; antibodies with hIgG‐Fc immobilised on a Series S Protein A sensor chip at 300 RU; recombinant mouse FcγRs injected at 400 to 3.125 nM, 30 µL/min, 90 s association, 120 s dissociation; 1:1 Langmuir binding model
73 (human) = test: as above
73‐DY (human) = test: as above
rc.hu1-23 (mouse) = test: SPR; BIAcore 8K, 25 °C, HBS-EP+; antibodies with mIgG-Fc captured on a CM5 chip with immobilised anti-mouse antibodies; FcγRs injected at 400 to 3.125 nM (1:2 dilutions), 30 µL/min, 90 s association, 120 s dissociation; 1:1 Langmuir model
Sequence of rc.hu1-23 (mouse) (heavy, as listed by the source, chain 1 of 2): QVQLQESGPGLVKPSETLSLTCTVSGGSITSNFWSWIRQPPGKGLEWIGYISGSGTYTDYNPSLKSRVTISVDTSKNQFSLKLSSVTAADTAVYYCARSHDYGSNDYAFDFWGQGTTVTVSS
Sequence of rc.hu1-23 (mouse) (light, as listed by the source, chain 2 of 2): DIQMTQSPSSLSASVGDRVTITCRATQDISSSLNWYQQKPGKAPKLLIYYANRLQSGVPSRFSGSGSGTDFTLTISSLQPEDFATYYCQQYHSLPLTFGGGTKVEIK

rc.73-DD (mouse) = test: as above
Sequence of rc.73-DD (mouse) (heavy, as listed by the source, chain 1 of 2): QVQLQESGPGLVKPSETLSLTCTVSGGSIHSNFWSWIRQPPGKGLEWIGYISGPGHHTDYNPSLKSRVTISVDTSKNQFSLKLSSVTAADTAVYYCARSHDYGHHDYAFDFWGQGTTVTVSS
Sequence of rc.73-DD (mouse) (light, as listed by the source, chain 2 of 2): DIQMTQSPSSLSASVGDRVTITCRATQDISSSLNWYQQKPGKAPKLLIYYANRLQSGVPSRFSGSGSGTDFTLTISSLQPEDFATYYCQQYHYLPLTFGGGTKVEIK

B2: mouse FcγRII (receptor)
chain: THDLPKAVVKLEPPWIQVLKEDTVTLTCEGTHNPGNSSTQWFHNGRSIRSQVQASYTFKATVNDSGEYRCQMEQTRLSDPVDLGVISDWLLLQTPQLVFLEGETITLRCHSWRNKLLNRISFFHNEKSVRYHHYSSNFSIPKANHSHSGDYYCKGSLGRTLHQSKPVTITVQGPKSSRSLP
- Kd (hu1‐23 (human)): 300 nM
- Kd (73 (human)): 379 nM
- Kd (73‐DY (human)): 9.72 nM
- Kd (rc.hu1-23 (mouse)): 196 nM
- Kd (rc.73-DD (mouse)): 2.97 nM

B3: mouse FcγRI (receptor)
chain: EVVNATKAVITLQPPWVSIFQKENVTLWCEGPHLPGDSSTQWFINGTAVQISTPSYSIPEASFQDSGEYRCQIGSSMPSDPVQLQIHNDWLLLQASRRVLTEGEPLALRCHGWKNKLVYNVVFYRNGKSFQFSSDSEVAILKTNLSHSGIYHCSGTGRHRYTSAGVSITVKELFTTPVLRASVSSPFPEGSLVTLNCETNLLLQRPGLQLHFSFYVGSKILEYRNTSSEYHIARAEREDAGFYWCEVATEDSSVLKRSPELELQVLGPQSSAP
- Kd (hu1‐23 (human)): 54.1 nM
- Kd (73 (human)): 45.2 nM
- Kd (73‐DY (human)): 11.1 nM

Results, then the binder that gave them:

- Kd (hu1‐23 (human)): 41.8 nM
- Kd (73 (human)): 42.6 nM
- Kd (73‐DY (human)): 54.3 nM
B1: mouse FcγRIV (receptor)
chain: GLQKAVVNLDPKWVRVLEEDSVTLRCQGTFSPEDNSIKWFHNESLIPHQDANYVIQSARVKDSGMYRCQTALSTISDPVQLEVHMGWLLLQTTKWLFQEGDPIHLRCHSWQNRPVRKVTYLQNGKGKKYFHENSELLIPKATHNDSGSYFCRGLIGHNNKSSASFRISLGDPGSPSMFPPWHQ

- Kd (hu1‐23 (human)): 233 nM
- Kd (73‐DY (human)): 12 nM
- Kd (rc.hu1-23 (mouse)): 2680 nM
- Kd (rc.73-DD (mouse)): 11.8 nM
B4: mouse FcγRIII (receptor)
chain: ALPKAVVKLDPPWIQVLKEDMVTLMCEGTHNPGNSSTQWFHNGRSIRSQVQASYTFKATVNDSGEYRCQMEQTRLSDPVDLGVISDWLLLQTPQRVFLEGETITLRCHSWRNKLLNRISFFHNEKSVRYHHYKSNFSIPKANHSHSGDYYCKGSLGSTQHQSKPVTITVQDPATTSSISLVWYHT
